Experimental data reported in publication PMC9715718.

Tests used:
[1] = target: RhlR-ATTO488 (Pseudomonas aeruginosa) (UniProt P54292); test: MST; PqsE diluted 1:1 from 10 µM, RhlR-ATTO488 at 20 nM; 50 mM Tris pH 8.0, 300 mM NaCl, 5% glycerol, 50 µM mBTL, 0.05% Tween; 25 °C
[2] = target: PqsE (purified, affinity tag removed) (Pseudomonas aeruginosa) (UniProt P20581); test: SEC-MALS; Superdex 200 Increase column in SEC buffer, 40-150 µg of protein applied

Row | Substance | Kd [1] [nM] | stoichiometry N (RhlR per PqsE (2:2 complex)) [2]
1 | PqsE (purified, affinity tag removed) (from UniProt P20581) (enzyme) | 146 | 
2 | RhlR (untagged, co-expressed with His6-PqsE) (from UniProt P54292) (natural protein) |  | 1
